Test results: PMC11940065 (2025)
Changes are numbered by the printed parent chain. Names may count otherwise. One block for each binder: values may come before it.

Molecular target: Methionine-1-linked triubiquitin (UniProt P0CG48 1-76; P0CG48 1-76; P0CG48 1-76)
Assay: MST

Methionine-1-linked triubiquitin, sequence (P0CG48 1-228, one chain of several): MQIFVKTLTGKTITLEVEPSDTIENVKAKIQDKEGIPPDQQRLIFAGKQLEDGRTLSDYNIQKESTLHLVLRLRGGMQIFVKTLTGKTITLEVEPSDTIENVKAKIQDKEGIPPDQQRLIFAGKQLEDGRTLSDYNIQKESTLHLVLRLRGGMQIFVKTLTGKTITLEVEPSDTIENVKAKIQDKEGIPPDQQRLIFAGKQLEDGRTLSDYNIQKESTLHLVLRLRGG

Kd: 3.52 µM
B1: AHD1-UBAN E444F (domain or fragment)
chain: QRLNKALEEALSIQTPPSSPPTAFGSPFGAGALLRKQELVTQNELLKQQVKIFEEDFQRERSDRERMNEEKEELKKQVEKLQAQVTLSNAQLK

Kd: 5.5 µM
B2: AHD1-UBAN E425Q (domain or fragment)
chain: B1 chain with E9Q, F28E
